Experimental data published in patent publication US20200353049A1.
Where “and” joins values, the source holds several entries; their conditions need not be identical. Equal entries are not always repeated.

Legend:
[1] = target: IL-22R1a extracellular domain (ECD) (UniProt Q8N6P7); experiment: binding ELISA on plate-coated IL-22R1a ECD, relative to Reference Standard (100%); T=0
[2] = target: IL-22R1a extracellular domain (ECD) (UniProt Q8N6P7); experiment: binding ELISA on plate-coated IL-22R1a ECD, relative to Reference Standard (100%); stored 5 C, 1 month
[3] = target: IL-22R1a extracellular domain (ECD) (UniProt Q8N6P7); experiment: potency assay (binding ELISA on plate-coated IL-22R1a ECD), relative to reference standard (100%); T=0
[4] = target: IL-22R1a extracellular domain (ECD) (UniProt Q8N6P7); experiment: as above; remark: listed apart in the source
[5] = target: IL-22R1a extracellular domain (ECD) (UniProt Q8N6P7); experiment: binding ELISA on plate-coated IL-22R1a ECD, relative to Reference Standard (100%); stored 5 C, 3 months
[6] = target: IL-22R1a extracellular domain (ECD) (UniProt Q8N6P7); experiment: binding ELISA on plate-coated IL-22R1a ECD, relative to Reference Standard (100%); stored -20 C, 6 months
[7] = target: IL-22R1a extracellular domain (ECD) (UniProt Q8N6P7); experiment: binding ELISA on plate-coated IL-22R1a ECD, relative to Reference Standard (100%); stored -20 C, 9 months
[8] = target: IL-22R1a extracellular domain (ECD) (UniProt Q8N6P7); experiment: binding ELISA on plate-coated IL-22R1a ECD, relative to Reference Standard (100%); stored -20 C, 3 months
[9] = target: IL-22R1a extracellular domain (ECD) (UniProt Q8N6P7); experiment: binding ELISA on plate-coated IL-22R1a ECD, relative to Reference Standard (100%); stored -20 C, 12 months
[10] = target: IL-22R1a extracellular domain (ECD) (UniProt Q8N6P7); experiment: as above; remark: listed apart in the source
[11] = target: IL-22R1a extracellular domain (ECD) (UniProt Q8N6P7); experiment: binding ELISA on plate-coated IL-22R1a ECD, relative to Reference Standard (100%); stored -20 C, 36 months
[12] = target: IL-22R1a extracellular domain (ECD) (UniProt Q8N6P7); experiment: binding ELISA on plate-coated IL-22R1a ECD, relative to Reference Standard (100%); stored -20 C, 48 months
[13] = target: IL-22R1a extracellular domain (ECD) (UniProt Q8N6P7); experiment: binding ELISA on plate-coated IL-22R1a ECD, relative to Reference Standard (100%); stored -20 C, 60 months
[14] = target: IL-22R1a extracellular domain (ECD) (UniProt Q8N6P7); experiment: potency assay (binding ELISA on plate-coated IL-22R1a ECD), relative to reference standard; 40 C stress, day 14
[15] = target: IL-22R1a extracellular domain (ECD) (UniProt Q8N6P7); experiment: binding ELISA on plate-coated IL-22R1a ECD, relative to Reference Standard; pH 7.0 formulation stored 1 week at 40 C
[16] = target: IL-22R1a extracellular domain (ECD) (UniProt Q8N6P7); experiment: potency assay (binding ELISA on plate-coated IL-22R1a ECD), relative to reference standard (100%); stored 5 C, 6 months
[17] = target: IL-22R1a extracellular domain (ECD) (UniProt Q8N6P7); experiment: potency assay (binding ELISA on plate-coated IL-22R1a ECD), relative to reference standard (100%); stored 5 C, 3 months
[18] = target: IL-22R1a extracellular domain (ECD) (UniProt Q8N6P7); experiment: potency assay (binding ELISA on plate-coated IL-22R1a ECD), relative to reference standard (100%); stored 5 C, 6 months; remark: listed apart in the source
[19] = target: IL-22R1a extracellular domain (ECD) (UniProt Q8N6P7); experiment: potency assay (binding ELISA on plate-coated IL-22R1a ECD), relative to reference standard (100%); stored 25 C, 6 months
[20] = target: IL-22R1a extracellular domain (ECD) (UniProt Q8N6P7); experiment: potency assay (binding ELISA on plate-coated IL-22R1a ECD), relative to reference standard (100%); stored 5 C, 30 months
[21] = target: IL-22R1a extracellular domain (ECD) (UniProt Q8N6P7); experiment: potency assay (binding ELISA on plate-coated IL-22R1a ECD), relative to reference standard (100%); stored 5 C, 42 months
[22] = target: IL-22R1a extracellular domain (ECD) (UniProt Q8N6P7); experiment: potency assay (binding ELISA on plate-coated IL-22R1a ECD), relative to reference standard (100%); stored 5 C, 18 months
[23] = target: IL-22R1a extracellular domain (ECD) (UniProt Q8N6P7); experiment: potency assay (binding ELISA on plate-coated IL-22R1a ECD), relative to reference standard (100%); stored 5 C, 42 months; remark: listed apart in the source
[24] = target: IL-22R1a extracellular domain (ECD) (UniProt Q8N6P7); experiment: potency assay (binding ELISA on plate-coated IL-22R1a ECD), relative to reference standard (100%); stored 5 C, 48 months
[25] = target: IL-22R1a extracellular domain (ECD) (UniProt Q8N6P7); experiment: potency assay (binding ELISA on plate-coated IL-22R1a ECD), relative to reference standard (100%); stored 5 C, 12 months (time printed as 180/12)
[26] = target: IL-22R1a extracellular domain (ECD) (UniProt Q8N6P7); experiment: potency assay (binding ELISA on plate-coated IL-22R1a ECD); change after 2 weeks at 40 C; this end matches Clinical Batch 3 in Table 26 (85 to 57)
[27] = target: IL-22R1a extracellular domain (ECD) (UniProt Q8N6P7); experiment: potency assay (binding ELISA on plate-coated IL-22R1a ECD); change after 2 weeks at 40 C; this end matches Reference Standard Batch in Table 26 (104 to 71)

UniProt Q8N6P7, sequence (Q8N6P7 16-228 limits assumed): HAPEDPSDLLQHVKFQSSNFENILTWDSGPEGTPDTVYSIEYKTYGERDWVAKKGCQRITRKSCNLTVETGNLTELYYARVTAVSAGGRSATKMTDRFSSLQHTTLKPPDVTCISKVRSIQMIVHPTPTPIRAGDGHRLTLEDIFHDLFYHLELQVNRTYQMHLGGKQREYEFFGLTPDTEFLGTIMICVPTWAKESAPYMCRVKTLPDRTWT

Potency by Binding Assay (% relative potency) (% relative potency) [1]: 71
Potency by Binding Assay (% relative potency) (% relative potency) [2]: 73
Potency (% relative potency) (% relative potency) [3]: 73
Potency (% relative potency) (% relative potency) [4]: 101
Potency by Binding Assay (% relative potency) (% relative potency) [5]: 73
Potency by Binding Assay (% relative potency) (% relative potency) [6]: 73
Potency by Binding Assay (% relative potency) (% relative potency) [7]: 68
Potency by Binding Assay (% relative potency) (% relative potency) [8]: 104
Potency by Binding Assay (% relative potency) (% relative potency) [9]: 69
Potency by Binding Assay (% relative potency) (% relative potency) [10]: 91
Potency by Binding Assay (% relative potency) (% relative potency) [11]: 107
Potency by Binding Assay (% relative potency) (% relative potency) [12]: 93
Potency by Binding Assay (% relative potency) (% relative potency) [13]: 99
Potency (% relative potency) (% relative potency) [14]: 71 and 57
Estimated % relative potency (n = 2) (% relative potency) [15]: 81
Potency (% relative potency) (% relative potency) [16]: 64
Potency (% relative potency) (% relative potency) [17]: 104
Potency (% relative potency) (% relative potency) [18]: 100
Potency (% relative potency) (% relative potency) [19]: 47
Potency (% relative potency) (% relative potency) [20]: 65
Potency (% relative potency) (% relative potency) [21]: 59
Potency (% relative potency) (% relative potency) [22]: 93
Potency (% relative potency) (% relative potency) [23]: 87
Potency (% relative potency) (% relative potency) [24]: 91
Potency (% relative potency) (% relative potency) [25]: 86
decrease in % relative potency (% relative potency) [26]: 28
decrease in % relative potency (% relative potency) [27]: 33
Substance: IL-22 Fc fusion protein
